# T1: LRRC7, Q96NW7
# T1 sequence (Q96NW7 1440-1537, limits assumed, looked up): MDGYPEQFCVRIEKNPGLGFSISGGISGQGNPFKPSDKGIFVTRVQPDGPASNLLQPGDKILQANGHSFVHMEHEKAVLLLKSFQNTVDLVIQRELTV
# T2: APBA2_1, Q99767
# T2 sequence (Q99767 563-664, limits assumed, looked up): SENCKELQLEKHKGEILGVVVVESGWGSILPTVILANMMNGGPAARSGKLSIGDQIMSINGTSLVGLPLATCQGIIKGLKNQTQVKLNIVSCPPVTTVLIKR
# T3: NHERF3_1, Q5T2W1
# T3 sequence (Q5T2W1 4-100, limits assumed, looked up): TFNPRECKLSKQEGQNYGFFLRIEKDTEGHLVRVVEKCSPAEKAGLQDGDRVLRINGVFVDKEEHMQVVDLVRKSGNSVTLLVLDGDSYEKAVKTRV
# T4: TJP3_3, O95049
# T4 sequence (O95049 375-456, limits assumed, looked up): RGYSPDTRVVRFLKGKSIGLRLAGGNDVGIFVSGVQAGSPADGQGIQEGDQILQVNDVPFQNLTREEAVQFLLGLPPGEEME
# T5: DFNB31_2, Q9P202
# T5 sequence (Q9P202 274-371, limits assumed, looked up): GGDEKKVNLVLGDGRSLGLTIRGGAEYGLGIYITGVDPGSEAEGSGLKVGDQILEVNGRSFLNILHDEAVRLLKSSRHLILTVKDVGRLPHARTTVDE
# T6: SYNJ2BP, P57105
# T6 sequence (P57105 8-110, limits assumed, looked up): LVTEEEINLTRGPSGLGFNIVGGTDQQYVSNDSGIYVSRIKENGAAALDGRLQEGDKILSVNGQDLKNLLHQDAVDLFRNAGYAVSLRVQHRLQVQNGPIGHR
# T7: MPDZ_10, O75970
# T7 sequence (O75970 1624-1722, limits assumed, looked up): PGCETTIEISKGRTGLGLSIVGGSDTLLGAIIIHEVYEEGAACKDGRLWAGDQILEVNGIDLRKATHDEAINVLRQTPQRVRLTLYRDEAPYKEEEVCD
# T8: GRIP1_7, Q9Y3R0
# T8 sequence (Q9Y3R0 999-1096, limits assumed, looked up): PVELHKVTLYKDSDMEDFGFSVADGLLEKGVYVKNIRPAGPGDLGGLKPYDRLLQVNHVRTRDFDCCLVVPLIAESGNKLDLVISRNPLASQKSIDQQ
# T9: PTPN13_1, Q12923
# T9 sequence (Q12923 1088-1188, limits assumed, looked up): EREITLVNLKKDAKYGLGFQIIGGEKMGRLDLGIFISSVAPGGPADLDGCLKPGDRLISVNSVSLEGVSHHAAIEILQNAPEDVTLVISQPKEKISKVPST
# T10: SNTA1, Q13424
# T10 sequence (Q13424 82-180, limits assumed, looked up): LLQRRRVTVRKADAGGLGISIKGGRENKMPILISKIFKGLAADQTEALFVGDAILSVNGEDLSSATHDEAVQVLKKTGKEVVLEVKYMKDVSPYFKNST
# T11: RHPN1, Q8TCX5
# T11 sequence (Q8TCX5 508-602, limits assumed, looked up): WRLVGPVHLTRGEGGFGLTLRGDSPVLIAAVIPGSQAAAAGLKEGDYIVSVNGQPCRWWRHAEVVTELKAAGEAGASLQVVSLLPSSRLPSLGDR
# T12: MPDZ_12, O75970
# T12 sequence (O75970 1857-1958, limits assumed, looked up): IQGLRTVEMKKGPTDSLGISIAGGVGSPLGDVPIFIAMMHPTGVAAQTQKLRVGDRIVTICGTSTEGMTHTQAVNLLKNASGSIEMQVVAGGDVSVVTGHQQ
# T13: APBA3_1, O96018
# T13 sequence (O96018 389-490, limits assumed, looked up): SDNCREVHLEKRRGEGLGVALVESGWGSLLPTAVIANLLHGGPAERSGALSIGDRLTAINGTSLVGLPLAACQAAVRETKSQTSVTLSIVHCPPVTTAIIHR
# Assays:
# Assay in all cases: holdup assay
# Set-up in all cases: key: below the threshold = too weak to quantify, mostly under pKd 3.1 to 4
# LRRC7, Q96NW7 = target: T1, LRRC7, Q96NW7
# APBA2_1, Q99767 = target: T2, APBA2_1, Q99767
# MAGI1_2, Q96QZ7 = target: MAGI1_2, Q96QZ7
# DLG1_1, Q12959 = target: DLG1_1, Q12959
# MAGI2_2, Q86UL8 = target: MAGI2_2, Q86UL8
# NHERF3_1, Q5T2W1 = target: T3, NHERF3_1, Q5T2W1
# CASK, O14936 = target: CASK, O14936
# TJP3_3, O95049 = target: T4, TJP3_3, O95049
# LNX1_3, Q8TBB1 = target: LNX1_3, Q8TBB1
# PDZRN4_1, Q6ZMN7 = target: PDZRN4_1, Q6ZMN7
# DLG1_3, Q12959 = target: DLG1_3, Q12959
# DFNB31_2, Q9P202 = target: T5, DFNB31_2, Q9P202
# SYNJ2BP, P57105 = target: T6, SYNJ2BP, P57105
# MPDZ_10, O75970 = target: T7, MPDZ_10, O75970
# MAGI2_4, Q86UL8 = target: MAGI2_4, Q86UL8
# DLG1_2, Q12959 = target: DLG1_2, Q12959
# GRIP1_7, Q9Y3R0 = target: T8, GRIP1_7, Q9Y3R0
# PTPN13_1, Q12923 = target: T9, PTPN13_1, Q12923
# GRIP2_7, Q9C0E4 = target: GRIP2_7, Q9C0E4
# SNTA1, Q13424 = target: T10, SNTA1, Q13424
# NHERF4_4, Q86UT5 = target: NHERF4_4, Q86UT5
# RHPN1, Q8TCX5 = target: T11, RHPN1, Q8TCX5
# Inadl_5, Q8NI35 = target: Inadl_5, Q8NI35
# MPDZ_12, O75970 = target: T12, MPDZ_12, O75970
# APBA3_1, O96018 = target: T13, APBA3_1, O96018
# [1] = plain residues with an end cap or a label only (N-terminal biotin on a linker: ado-ado)
# [2] = plain residues with an end cap or a label only (N-terminal biotin on a linker: ahx)
# Chain of GRIP2_7, Q9C0E4 (Q9C0E4 934-1023): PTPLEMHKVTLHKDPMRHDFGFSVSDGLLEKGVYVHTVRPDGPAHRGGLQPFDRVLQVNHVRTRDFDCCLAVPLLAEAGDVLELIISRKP
# Chain of CASK, O14936 (O14936 487-570): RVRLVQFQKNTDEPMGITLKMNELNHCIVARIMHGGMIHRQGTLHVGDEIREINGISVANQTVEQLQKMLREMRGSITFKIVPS
# Chain of NHERF4_4, Q86UT5 (Q86UT5 464-550): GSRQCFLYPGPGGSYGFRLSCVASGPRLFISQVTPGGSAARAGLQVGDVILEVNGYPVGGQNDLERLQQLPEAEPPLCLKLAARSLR
# Chain of LNX1_3, Q8TBB1 (Q8TBB1 500-596): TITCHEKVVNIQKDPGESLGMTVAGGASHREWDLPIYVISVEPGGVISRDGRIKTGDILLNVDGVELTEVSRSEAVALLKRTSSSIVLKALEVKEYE
# Chain of MAGI1_2, Q96QZ7 (Q96QZ7 456-580): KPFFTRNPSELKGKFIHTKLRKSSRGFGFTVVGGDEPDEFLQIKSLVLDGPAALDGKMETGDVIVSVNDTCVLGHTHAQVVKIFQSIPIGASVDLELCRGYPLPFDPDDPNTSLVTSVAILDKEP
# Chain of Inadl_5, Q8NI35 (Q8NI35 673-780): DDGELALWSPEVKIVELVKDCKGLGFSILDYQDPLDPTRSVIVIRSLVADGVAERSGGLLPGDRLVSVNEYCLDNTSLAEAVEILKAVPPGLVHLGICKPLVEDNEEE
# Chain of MAGI2_4, Q86UL8 (Q86UL8 772-865): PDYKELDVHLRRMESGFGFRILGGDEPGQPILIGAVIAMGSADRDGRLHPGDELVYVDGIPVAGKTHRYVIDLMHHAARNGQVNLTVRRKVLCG
# Chain of MAGI2_2, Q86UL8 (Q86UL8 410-522): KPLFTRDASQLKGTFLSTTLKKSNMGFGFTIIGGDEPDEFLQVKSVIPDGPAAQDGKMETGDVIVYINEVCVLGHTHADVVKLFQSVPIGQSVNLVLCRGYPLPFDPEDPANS
# Chain of PDZRN4_1, Q6ZMN7 (Q6ZMN7 213-318): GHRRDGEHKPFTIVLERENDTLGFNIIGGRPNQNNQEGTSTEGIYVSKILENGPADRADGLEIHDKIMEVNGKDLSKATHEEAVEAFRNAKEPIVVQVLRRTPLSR
binder,measurement,setting,value
"SLNANEVEWF [RNF130, Q86XS8]",pKd,"LRRC7, Q96NW7; [1]",below the threshold
same,pKd,"APBA2_1, Q99767; [1]",3.61
same,pKd,"MAGI1_2, Q96QZ7; [1]",below the threshold
same,pKd,"DLG1_1, Q12959; [1]",below the threshold
same,pKd,"MAGI2_2, Q86UL8; [1]",below the threshold
same,pKd,"NHERF3_1, Q5T2W1; [1]",3.89
same,pKd,"CASK, O14936; [1]",below the threshold
same,pKd,"TJP3_3, O95049; [1]",3.6
same,pKd,"LNX1_3, Q8TBB1; [1]",below the threshold
same,pKd,"PDZRN4_1, Q6ZMN7; [1]",below the threshold
same,pKd,"DLG1_3, Q12959; [1]",3.64
same,pKd,"DFNB31_2, Q9P202; [1]",below the threshold
same,pKd,"SYNJ2BP, P57105; [1]",below the threshold
same,pKd,"MPDZ_10, O75970; [1]",below the threshold
same,pKd,"MAGI2_4, Q86UL8; [1]",3.94
same,pKd,"DLG1_2, Q12959; [1]",below the threshold
same,pKd,"GRIP1_7, Q9Y3R0; [1]",below the threshold
same,pKd,"PTPN13_1, Q12923; [1]",3.5
same,pKd,"GRIP2_7, Q9C0E4; [1]",3.94
same,pKd,"SNTA1, Q13424; [1]",below the threshold
same,pKd,"NHERF4_4, Q86UT5; [1]",4.1
same,pKd,"RHPN1, Q8TCX5; [1]",3.5
same,pKd,"Inadl_5, Q8NI35; [1]",3.51
same,pKd,"MPDZ_12, O75970; [1]",below the threshold
same,pKd,"APBA3_1, O96018; [1]",3.55
"EKQAKGDTEF [CACYBP, Q9HB71]",pKd,"LRRC7, Q96NW7; [2]",below the threshold
same,pKd,"APBA2_1, Q99767; [2]",below the threshold
same,pKd,"MAGI1_2, Q96QZ7; [2]",below the threshold
same,pKd,"DLG1_1, Q12959; [2]",below the threshold
same,pKd,"MAGI2_2, Q86UL8; [2]",below the threshold
same,pKd,"NHERF3_1, Q5T2W1; [2]",below the threshold
same,pKd,"CASK, O14936; [2]",below the threshold
same,pKd,"TJP3_3, O95049; [2]",below the threshold
same,pKd,"LNX1_3, Q8TBB1; [2]",below the threshold
same,pKd,"PDZRN4_1, Q6ZMN7; [2]",below the threshold
same,pKd,"DLG1_3, Q12959; [2]",below the threshold
same,pKd,"DFNB31_2, Q9P202; [2]",below the threshold
same,pKd,"SYNJ2BP, P57105; [2]",below the threshold
same,pKd,"MPDZ_10, O75970; [2]",below the threshold
same,pKd,"MAGI2_4, Q86UL8; [2]",below the threshold
same,pKd,"DLG1_2, Q12959; [2]",below the threshold
same,pKd,"GRIP1_7, Q9Y3R0; [2]",below the threshold
same,pKd,"PTPN13_1, Q12923; [2]",below the threshold
same,pKd,"GRIP2_7, Q9C0E4; [2]",below the threshold
same,pKd,"SNTA1, Q13424; [2]",below the threshold
same,pKd,"NHERF4_4, Q86UT5; [2]",below the threshold
same,pKd,"RHPN1, Q8TCX5; [2]",below the threshold
same,pKd,"Inadl_5, Q8NI35; [2]",below the threshold
same,pKd,"MPDZ_12, O75970; [2]",below the threshold
same,pKd,"APBA3_1, O96018; [2]",below the threshold
"TRKRSGEAAV [PFKM, P08237]",pKd,"LRRC7, Q96NW7; [1]",below the threshold
same,pKd,"APBA2_1, Q99767; [1]",below the threshold
same,pKd,"MAGI1_2, Q96QZ7; [1]",below the threshold
same,pKd,"DLG1_1, Q12959; [1]",below the threshold
same,pKd,"MAGI2_2, Q86UL8; [1]",4.09
same,pKd,"NHERF3_1, Q5T2W1; [1]",below the threshold
same,pKd,"CASK, O14936; [1]",below the threshold
same,pKd,"TJP3_3, O95049; [1]",below the threshold
same,pKd,"LNX1_3, Q8TBB1; [1]",below the threshold
same,pKd,"PDZRN4_1, Q6ZMN7; [1]",below the threshold
same,pKd,"DLG1_3, Q12959; [1]",below the threshold
same,pKd,"DFNB31_2, Q9P202; [1]",below the threshold
same,pKd,"SYNJ2BP, P57105; [1]",4.06
same,pKd,"MPDZ_10, O75970; [1]",below the threshold
same,pKd,"MAGI2_4, Q86UL8; [1]",below the threshold
same,pKd,"DLG1_2, Q12959; [1]",3.95
same,pKd,"GRIP1_7, Q9Y3R0; [1]",below the threshold
same,pKd,"PTPN13_1, Q12923; [1]",below the threshold
same,pKd,"GRIP2_7, Q9C0E4; [1]",below the threshold
same,pKd,"SNTA1, Q13424; [1]",below the threshold
same,pKd,"NHERF4_4, Q86UT5; [1]",below the threshold
same,pKd,"RHPN1, Q8TCX5; [1]",below the threshold
same,pKd,"Inadl_5, Q8NI35; [1]",below the threshold
same,pKd,"MPDZ_12, O75970; [1]",below the threshold
same,pKd,"APBA3_1, O96018; [1]",below the threshold
"KPGKGSETVV [FZD4, Q9ULV1]",pKd,"LRRC7, Q96NW7; [1]",below the threshold
same,pKd,"APBA2_1, Q99767; [1]",below the threshold
same,pKd,"MAGI1_2, Q96QZ7; [1]",4.47
same,pKd,"DLG1_1, Q12959; [1]",4.65
same,pKd,"MAGI2_2, Q86UL8; [1]",5.22
same,pKd,"NHERF3_1, Q5T2W1; [1]",below the threshold
same,pKd,"CASK, O14936; [1]",below the threshold
same,pKd,"TJP3_3, O95049; [1]",below the threshold
same,pKd,"LNX1_3, Q8TBB1; [1]",below the threshold
same,pKd,"PDZRN4_1, Q6ZMN7; [1]",3.51
same,pKd,"DLG1_3, Q12959; [1]",below the threshold
same,pKd,"DFNB31_2, Q9P202; [1]",below the threshold
same,pKd,"SYNJ2BP, P57105; [1]",4.3
same,pKd,"MPDZ_10, O75970; [1]",below the threshold
same,pKd,"MAGI2_4, Q86UL8; [1]",4.48
same,pKd,"DLG1_2, Q12959; [1]",5.12
same,pKd,"GRIP1_7, Q9Y3R0; [1]",below the threshold
same,pKd,"PTPN13_1, Q12923; [1]",below the threshold
same,pKd,"GRIP2_7, Q9C0E4; [1]",below the threshold
same,pKd,"SNTA1, Q13424; [1]",4.6
same,pKd,"NHERF4_4, Q86UT5; [1]",below the threshold
same,pKd,"RHPN1, Q8TCX5; [1]",3.89
same,pKd,"Inadl_5, Q8NI35; [1]",below the threshold
same,pKd,"MPDZ_12, O75970; [1]",below the threshold
same,pKd,"APBA3_1, O96018; [1]",below the threshold

# From article PMC9482650, “Quantitative fragmentomics allow affinity mapping of interactomes” (Nature Communications, 2022)
